In patent publication US20220025060A1 (JIANGSU HENGRUI MEDICINE, published 2022):

Target: T1, His-tagged human CD40 (h-CD40-his) recombinant protein (human, UniProt P25942 21-193)
T1 construct: range 21-193; Commercial reagent from Acrobiosystems; also called human CD40-his; not shown: His tag
Assay: Biacore SPR
Excerpt: According to the method described in the instruction available from Human Anti-capture Kit (Cat.# BR-1008-39, GE), human anti-capture antibody was covalently coupled to biosensing chip CM5 of the Biacore instrument (Biacore X100, GE), a certain amount of chimeric or humanized antibodies to be tested was affinity-captured, and then a series of concentration gradients of CD40 antigen (CD40 antigen purchased from Acrobiosystems) flowed through the surface of the chip. Biacore instrument (Biacore X100, GE) was used to detect the reaction signal in real-time, thus to obtain the association and dissociation curves. After each cycle of dissociation was completed, the biochip was washed and regenerated with a regeneration solution provided by the Human Anti-capture Kit. The amino coupling kit used in the test was purchased from GE (Cat. # BR-1000-50, GE), and HBS-EP+10× buffer solution (Cat. # BR-1006-69, GE) was diluted to 1×(pH 7.4) with double distilled water.
The data obtained from the test was fitted against a (1:1) Binding model using BiacoreX100 evaluation software2.0 GE, and the affinity value was obtained, as shown in Table 10 and Table 11.

T1 sequence (P25942 21-193 limits assumed): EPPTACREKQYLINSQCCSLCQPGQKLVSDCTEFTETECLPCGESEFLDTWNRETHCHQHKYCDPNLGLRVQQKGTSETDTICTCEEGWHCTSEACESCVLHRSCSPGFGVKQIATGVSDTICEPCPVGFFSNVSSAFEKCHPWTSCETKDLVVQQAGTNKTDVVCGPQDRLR

fold affinity against the Alligator control: ≥ 10 times
fold affinity against the Pfizer Control: ≥ 4 times
B1: humanized antibody hu9E5 (H1c heavy chain, L1a light chain) (antibody, human IgG1, kappa, V domains shown)
VH: QVQLVQSGAEVKKPGASVKVSCKASGYILTTYWITWVRQAPGQGLEWMGDIHPGSGSTKYNEKFKSRVTLTVDTSISTAYMELSRLRSEDTAVYYCARRDYWGQGTTVTVSS
VL: DIVMTQSPLSLPVTPGEPASISCRSSQNIVNSQGNTYLEWYLQKPGQSPQLLIYKVTNRFSGVPDRFSGSGSGTDFTLKISRVEAEDVGVYYCFQASLVPWTFGGGTKVEIKR
notes: also called Hu9E5-25
